Data: patent US20250034239A1 (LINNO PHARMACEUTICALS, published 2025)

How the values were obtained:
[1] = target: T1, human transferrin (Sigma T3309) (human, UniProt P02787 20-698); assay: flow cytometry on HEK293F-hTfR1 cells with human transferrin, pH 6.0
T1 construct: mature; same polypeptide; also called native human transferrin; hTf
Protocol: (§1) HEK293F-hTfR1 cells were prepared by transfecting hTfR1-expressing plasmid, with a GFP tag, into HEK293F cells. Stable pool was used for this assay. Briefly, the engineered HEK293F cells expressing hTfR1 were cultured with OPM-293 CD05 medium at 37° C., with 8% CO₂ and saturated humidity in cell shaker. […] The cells were washed twice by centrifugation at 300 g for 5 min at 4° C., before rabbit anti-OVA antibodies and a secondary anti-rabbit IgG-AF647 (all prepared in blocking buffer). The cells were scanned with CytoFLEX (Beckman).

[2] = target: T1, human transferrin (Sigma T3309); assay: flow cytometry on HEK293F-hTfR1 cells with human transferrin, pH 7.4
Protocol: as §1

T1 sequence (P02787 20-698): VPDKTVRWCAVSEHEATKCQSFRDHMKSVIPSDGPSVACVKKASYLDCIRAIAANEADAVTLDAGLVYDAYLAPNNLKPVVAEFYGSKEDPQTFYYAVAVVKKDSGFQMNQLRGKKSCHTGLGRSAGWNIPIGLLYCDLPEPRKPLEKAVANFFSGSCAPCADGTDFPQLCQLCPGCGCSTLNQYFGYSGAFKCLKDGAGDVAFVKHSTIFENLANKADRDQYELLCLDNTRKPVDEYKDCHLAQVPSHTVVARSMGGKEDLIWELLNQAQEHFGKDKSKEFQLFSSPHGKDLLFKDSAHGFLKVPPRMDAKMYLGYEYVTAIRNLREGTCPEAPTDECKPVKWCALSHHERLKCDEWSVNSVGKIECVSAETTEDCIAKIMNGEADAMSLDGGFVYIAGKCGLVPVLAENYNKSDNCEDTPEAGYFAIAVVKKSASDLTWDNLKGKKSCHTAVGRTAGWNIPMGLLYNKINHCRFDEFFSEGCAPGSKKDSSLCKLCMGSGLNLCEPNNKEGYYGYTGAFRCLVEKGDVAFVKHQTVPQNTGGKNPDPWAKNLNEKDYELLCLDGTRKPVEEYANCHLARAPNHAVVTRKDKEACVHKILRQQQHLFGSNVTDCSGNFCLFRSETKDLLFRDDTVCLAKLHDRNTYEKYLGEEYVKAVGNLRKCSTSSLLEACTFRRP

B1: SLN0066 VHH-OVA-His (negative control VHH) (VHH)
chain: HVQLVESGGGSVQAGGSLRLSCVASGIGHGFNNNCMGWFRQAPGKEREGVAAVYTGGGTPYYADSVKGRFTLSQDNAKNTLYLQMNGLDPEDTAMYYCVADIWRTYRCGAGDTTVFDYRGQGTLVTVSSGSIGAASMEFCFDVFKELKVHHANENIFYCPIAIMSALAMVYLGAKDSTRTQINKVVRFDKLPGFGDSIEAQCGTSVNVHSSLRDILNQITKPNDVYSFSLASRLYAEERYPILPEYLQCVKELYRGGLEPINFQTAADQARELINSWVESQTNGIIRNVLQPSSVDSQTAMVLVNAIVFKGLWEKAFKDEDTQAMPFRVTEQESKPVQMMYQIGLFRVASMASEKMKILELPFASGTMSMLVLLPDEVSGLEQLESIINFEKLTEWTSSNVMEERKIKVYLPRMKMEEKYNLTSVLMAMGITDVFSSSANLSGISSAESLKISQAVHAAHAEINEAGREVVGSAEAGVDAASVSEEFRADHPFLFCIKHIATNAVLFFGRCVSP
notes: not shown: His tag
Question: What does the source list for B1?
Answer: percent binding (flow cytometry, VHH/Tf on hTfR1-overexpressing cells, pH 6.0) [1]: < 5%; percent binding (flow cytometry, VHH/Tf on hTfR1-overexpressing cells, pH 7.4) [2]: < 5%
